Measurements taken from the supplement of paper PMC11246515.
± gives the standard deviation of the averaged measurements.

Assay: total protein half-life in vivo (active degradation + dilution); higher = more stable protein
[1] = E. coli NCM3722 delta-clpP delta-lon delta-hslV, growth: N-lim chemostat, doubling time 6 h
[2] = E. coli NCM3722 delta-clpP, growth: N-lim chemostat, doubling time 6 h
[3] = E. coli NCM3722 delta-hslV, growth: N-lim chemostat, doubling time 6 h
[4] = E. coli NCM3722 delta-lon, growth: N-lim chemostat, doubling time 6 h
[5] = E. coli NCM3722 delta-smpB, growth: N-lim chemostat, doubling time 6 h
[6] = wild type E. coli NCM3722, growth: C-lim chemostat, doubling time 3 h
[7] = wild type E. coli NCM3722, growth: C-lim chemostat, doubling time 6 h
[8] = wild type E. coli NCM3722, growth: C-lim chemostat, doubling time 12 h
[9] = wild type E. coli NCM3722, growth: N-lim chemostat, doubling time 6 h
[10] = wild type E. coli NCM3722, growth: N-lim chemostat, doubling time 12 h
[11] = wild type E. coli NCM3722, growth: P-lim chemostat, doubling time 6 h
[12] = wild type E. coli NCM3722, growth: P-lim chemostat, doubling time 12 h

| Sequence | total protein half-life in vivo [1] [h] | total protein half-life in vivo [2] [h] | total protein half-life in vivo [3] [h] | total protein half-life in vivo [4] [h] | total protein half-life in vivo [5] [h] | total protein half-life in vivo [6] [h] | total protein half-life in vivo [7] [h] | total protein half-life in vivo [8] [h] | total protein half-life in vivo [9] [h] | total protein half-life in vivo [10] [h] | total protein half-life in vivo [11] [h] | total protein half-life in vivo [12] [h] |
| --- | --- | --- | --- | --- | --- | --- | --- | --- | --- | --- | --- | --- |
| MRTVLNILNFVLGGFATTLGWLLATLVSIVLIFTLPLTRSCWEITKLSLVPYGNEAIHVDELNPAGKNVLLNTGGTVLNIFWLIFFGWWLCLMHIATGIAQCISIIGIPVGIANFKIAAIALWPVGRRVVSVETAQAAREANARRRFE [P0AB12] | 6.35 ± 0.66 | 6.3 ± 0.72 | 5.92 ± 0.069 | 5.93 ± 0.27 | 6.1 ± 0.31 | 2.89 ± 0.29 | 6.33 ± 0.089 | 12.5 ± 1 | 6.72 ± 1.3 | 12.3 ± 3.2 | 5.98 ± 0.26 | 12 ± 0.12 |
| MRVDAIAKVTGRARYTDDYVMAGMCYAKYVRSPIAHGYAVSINDEQARSLPGVLAIFTWEDVPDIPFATAGHAWTLDENKRDTADRALLTRHVRHHGDAVAIVVARDELTAEKAAQLVSIEWQELPVITTPEAALAEDAAPIHNGGNLLKQSTMSTGNVQQTIDAADYQVQGHYQTPVIQHCHMESVTSLAWMEDDSRITIVSSTQIPHIVRRVVGQALDIPWSCVRVIKPFVGGGFGNKQDVLEEPMAAFLTSKLGGIPVKVSLSREECFLATRTRHAFTIDGQMGVNRDGTLKGYSLDVLSNTGAYASHGHSIASAGGNKVAYLYPRCAYAYSSKTCYTNLPSAGAMRGYGAPQVVFAVESMLDDAATALGIDPVEIRLRNAAREGDANPLTGKRIYSAGLPECLEKGRKIFEWEKRRAECQNQQGNLRRGVGVACFSYTSNTWPVGVEIAGARLLMNQDGTINVQSGATEIGQGADTVFSQMVAETVGVPVSDVRVISTQDTDVTPFDPGAFASRQSYVAAPALRSAALLLKEKIIAHAAVMLHQSAMNLTLIKGHIVLVERPEEPLMSLKDLAMDAFYHPERGGQLSAESSIKTTTNPPAFGCTFVDLTVDIALCKVTINRILNVHDSGHILNPLLAEGQVHGGMGMGIGWALFEEMIIDAKSGVVRNPNLLDYKMPTMPDLPQLESAFVEINEPQSAYGHKSLGEPPIIPVAAAIRNAVKMATGVAINTLPLTPKRLYEEFHLAGLI | 5 | – | – | – | – | 1.88 ± 0.088 | 2.81 ± 0.68 | 3.56 ± 1.4 | – | – | – | – |
| MRVLIKNGTVVNADGQAKQDLLIESGIVRQLGNNISPQLPYEEIDATGCYVFPGGVDVHTHFNIDVGIARSCDDFFTGTRAAACGGTTTIIDHMGFGPNGCRLRHQLEVYRGYAAHKAVIDYSFHGVIQHINHAILDEIPMIVEEGLSSFKLYLTYQYKLNDDEVLQALRRLHESGALTTVHPENDAAIASKRAEFIAAGLTAPRYHALSRPLECEAEAIARMINLAQIAGNAPLYIVHLSNGLGLDYLRLARANHQPVWVETCPQYLLLDERSYDTEDGMKFILSPPLRNVREQDKLWCGISDGAIDVVATDHCTFSMAQRLQISKGDFSRCPNGLPGVENRMQLLFSSGVMTGRITPERFVELTSAMPARLFGLWPQKGLLAPGSDGDVVIIDPRQSQQIQHRHLHDNADYSPWEGFTCQGAIVRTLSRGETIFCDGTFTGKAGRGRFLRRKPFVPPVL | – | – | – | – | – | > 4 | – | – | – | – | – | 12.1 |
| MRVLIVKTSSMGDVLHTLPALTDAQQAIPGIKFDWVVEEGFAQIPSWHAAVERVIPVAIRRWRKAWFSAPIKAERKAFREALQAENYDAVIDAQGLVKSAALVTRLAHGVKHGMDWQTAREPLASLFYNRKHHIAKQQHAVERTRELFAKSLGYSKPQTQGDYAIAQHFLTNLPTDAGEYAVFLHATTRDDKHWPEEHWRELIGLLADSGIRIKLPWGAPHEEERAKRLAEGFAYVEVLPKMSLEGVARVLAGAKFVVSVDTGLSHLTAALDRPNITVYGPTDPGLIGGYGKNQMVCRAPRENLINLNSQAVLEKLSSL | 5.54 ± 0.21 | 5.02 ± 0.34 | 5.1 | 5.08 ± 0.063 | 5.74 ± 1.2 | 2.76 ± 0.13 | 5.73 ± 0.28 | 13.2 ± 2.2 | 5.72 ± 0.27 | 11.5 ± 2.6 | 5.23 ± 0.16 | 10.63 ± 0.039 |
| MRVLKFGGTSVANAERFLRVADILESNARQGQVATVLSAPAKITNHLVAMIEKTISGQDALPNISDAERIFAELLTGLAAAQPGFPLAQLKTFVDQEFAQIKHVLHGISLLGQCPDSINAALICRGEKMSIAIMAGVLEARGHNVTVIDPVEKLLAVGHYLESTVDIAESTRRIAASRIPADHMVLMAGFTAGNEKGELVVLGRNGSDYSAAVLAACLRADCCEIWTDVDGVYTCDPRQVPDARLLKSMSYQEAMELSYFGAKVLHPRTITPIAQFQIPCLIKNTGNPQAPGTLIGASRDEDELPVKGISNLNNMAMFSVSGPGMKGMVGMAARVFAAMSRARISVVLITQSSSEYSISFCVPQSDCVRAERAMQEEFYLELKEGLLEPLAVTERLAIISVVGDGMRTLRGISAKFFAALARANINIVAIAQGSSERSISVVVNNDDATTGVRVTHQMLFNTDQVIEVFVIGVGGVGGALLEQLKRQQSWLKNKHIDLRVCGVANSKALLTNVHGLNLENWQEELAQAKEPFNLGRLIRLVKEYHLLNPVIVDCTSSQAVADQYADFLREGFHVVTPNKKANTSSMDYYHQLRYAAEKSRRKFLYDTNVGAGLPVIENLQNLLNAGDELMKFSGILSGSLSYIFGKLDEGMSFSEATTLAREMGYTEPDPRDDLSGMDVARKLLILARETGRELELADIEIEPVLPAEFNAEGDVAAFMANLSQLDDLFAARVAKARDEGKVLRYVGNIDEDGVCRVKIAEVDGNDPLFKVKNGENALAFYSHYYQPLPLVLRGYGAGNDVTAAGVFADLLRTLSWKLGV | 5.65 ± 0.16 | 4.31 ± 0.13 | 4.513 ± 0.01 | 4.89 ± 0.11 | 4.13 ± 0.11 | 3.08 ± 0.21 | 5.9 ± 0.22 | 13.5 ± 0.33 | 4.29 ± 0.33 | 7.56 ± 0.76 | 6.53 ± 0.39 | 12.2 ± 0.26 |
| MRVLLFLLLSLFMLPAFSADNLLRWHDAQHFTVQASTPLKAKRAWKLCALYPSLKDSYWLSLNYGMQEAARRYGVDLKVLEAGGYSQLATQQAQIDQCKQWGAEAILLGSSTTSFPDLQKQVASLPVIELVNAIDAPQVKSRVGVPWFQMGYQPGRYLVQWAHGKPLNVLLMPGPDNAGGSKEMVEGFRAAIAGSPVRIVDIALGDNDIEIQRNLLQEMLERHPEIDVVAGTAIAAEAAMGEGRNLKTPLTVVSFYLSHQVYRGLKRGRVIMAASDQMVWQGELAVEQAIRQLQGQSVSDNVSPPILVLTPKNADREHIRRSLSPGGFRPVYFYQHTSAAKK | 6.15 ± 0.33 | 5.43 ± 0.75 | 3.15 ± 0.62 | 4.15 ± 1.5 | 3.08 | – | – | 4.04 | 3.87 ± 1.8 | 9.91 ± 3.2 | 4.02 | 6.77 ± 2.5 |
| MRVNNGLTPQELEAYGISDVHDIVYNPSYDLLYQEELDPSLTGYERGVLTNLGAVAVDTGIFTGRSPKDKYIVRDDTTRDTFWWADKGKGKNDNKPLSPETWQHLKGLVTRQLSGKRLFVVDAFCGANPDTRLSVRFITEVAWQAHFVKNMFIRPSDEELAGFKPDFIVMNGAKCTNPQWKEQGLNSENFVAFNLTERMQLIGGTWYGGEMKKGMFSMMNYLLPLKGIASMHCSANVGEKGDVAVFFGLSGTGKTTLSTDPKRRLIGDDEHGWDDDGVFNFEGGCYAKTIKLSKEAEPEIYNAIRRDALLENVTVREDGTIDFDDGSKTENTRVSYPIYHIDNIVKPVSKAGHATKVIFLTADAFGVLPPVSRLTADQTQYHFLSGFTAKLAGTERGITEPTPTFSACFGAAFLSLHPTQYAEVLVKRMQAAGAQAYLVNTGWNGTGKRISIKDTRAIIDAILNGSLDNAETFTLPMFNLAIPTELPGVDTKILDPRNTYASPEQWQEKAETLAKLFIDNFDKYTDTPAGAALVAAGPKL | 4.17 ± 0.081 | 3.55 ± 0.13 | 3.29 ± 0.037 | 4.19 ± 0.05 | 3.45 ± 0.21 | 3.53 ± 0.18 | 6.17 ± 0.42 | 10.5 ± 0.7 | 3.69 ± 0.2 | 5.13 ± 0.55 | 5.5 ± 0.58 | 10.7 ± 0.72 |
